In the assay the target is mouse IL-17F/IL-17A heterodimer (mouse). Nature of the assay: cell-based or functional assay.
Chain of mouse IL-17F/IL-17A heterodimer (mouse) (Q62386 26-158, chain 1 of 2): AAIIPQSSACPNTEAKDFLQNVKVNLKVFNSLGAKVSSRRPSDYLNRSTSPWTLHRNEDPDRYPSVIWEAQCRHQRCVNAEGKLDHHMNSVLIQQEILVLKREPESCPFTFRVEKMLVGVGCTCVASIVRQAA
Chain of mouse IL-17F/IL-17A heterodimer (mouse) (Q7TNI7 29-161, chain 2 of 2, further chain): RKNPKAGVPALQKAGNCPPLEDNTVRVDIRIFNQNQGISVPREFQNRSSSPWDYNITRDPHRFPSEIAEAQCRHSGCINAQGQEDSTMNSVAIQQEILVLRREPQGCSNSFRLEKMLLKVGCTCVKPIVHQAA

On to “anti-mouse IL-17A antibody 50104 (R&D Systems)”, for which the decrease in CXCL1 production by MLE-12 cells induced by 200 ng/ml mIL-17F/IL-17A with 80 µg/ml antibody amounted to 85%.

(Values after patent US20080241130A1.)
